{"source": "paper PMC9352680", "about": "“A comprehensive thermodynamic model for RNA binding by the Saccharomyces cerevisiae Pumilio protein PUF4”", "binders": {"B1": {"name": "Ic_S2_P4E.1_K4.1_C4.1_H4.1_A4.1_[T7C]_F4.1_[T8C]_T4.1 (ssRNA)", "RNA": "UUUGAUUAAUAUGAUAUCGUUCUUUCUUGUAUACCAUUCUUUCUCGAUAUCAUAUUAAUCUUU"}, "B2": {"name": "Ib_S2_P4E.1_K4.1_C4.1_H4.1_A4.1_[T7A]_F4.1_[T8C]_T4.1 (ssRNA)", "RNA": "B1 RNA with C34A"}, "B3": {"name": "Ic_S2_P4E.1_K4.1_C4.1_H4.1_A4.1_[T7C]_F4.1_[T8A]_T4.1 (ssRNA)", "RNA": "B1 RNA with C35A"}, "B4": {"name": "Ic_S2_P4E.1_K4.1_C4.1_H4.1_A4.1_[T7A]_F4.1_[T8A]_T4.1 (ssRNA)", "RNA": "B1 RNA with C34A, C35A"}, "B5": {"name": "Ib_S2_P4E.1_K4.1_C4.1_H4.1_A4.1_[T5A]_F4.1_[A9G]_T4.1 (ssRNA)", "RNA": "B1 RNA with U32A, C34U, C35U, A36G"}, "B6": {"name": "Ic_S2_P4E.1_K4.1_C4.1_H4.1_A4.1_[T5C]_F4.1_[A9C]_T4.1 (ssRNA)", "RNA": "B1 RNA with U32C, C34U, C35U, A36C"}, "B7": {"name": "Ib_S2_P4E.1_K4.1_C4.1_H4.1_A4.1_[T5A]_F4.1_[A9C]_T4.1 (ssRNA)", "RNA": "B1 RNA with U32A, C34U, C35U, A36C"}, "B8": {"name": "Ib_S2_P4E.1_K4.1_C4.1_H4.1_A4.1_[T5A]_F4.1_[A9T]_T4.1 (ssRNA)", "RNA": "B1 RNA with U32A, C34U, C35U, A36U"}, "B9": {"name": "Ib_S2_P4E.1_K4.1_C4.1_H4.1_A4.1_[A6G]_F4.1_[A9G]_T4.1 (ssRNA)", "RNA": "B1 RNA with A33G, C34U, C35U, A36G"}, "B10": {"name": "Ic_S2_P4E.1_K4.1_C4.1_H4.1_A4.1_F4.1_[A9T]_T4.1 (ssRNA)", "RNA": "B1 RNA with C34U, C35U, A36U"}, "B11": {"name": "Ib_S2_P4E.1_K4.1_C4.1_H4.1_A4.1_[A6C]_F4.1_[A9G]_T4.1 (ssRNA)", "RNA": "B1 RNA with A33C, C34U, C35U, A36G"}, "B12": {"name": "Ic_S2_P4E.1_K4.1_C4.1_H4.1_A4.1_[A6C]_F4.1_[A9C]_T4.1 (ssRNA)", "RNA": "B1 RNA with A33C, C34U, C35U, A36C"}, "B13": {"name": "Ib_S2_P4E.1_K4.1_C4.1_H4.1_A4.1_[A6T]_F4.1_[A9C]_T4.1 (ssRNA)", "RNA": "B1 RNA with A33U, C34U, C35U, A36C"}, "B14": {"name": "Ib_S2_P4E.1_K4.1_C4.1_H4.1_A4.1_[A6G]_F4.1_[A9T]_T4.1 (ssRNA)", "RNA": "B1 RNA with A33G, C34U, C35U, A36U"}, "B15": {"name": "Ib_S2_P4E.1_K4.1_C4.1_H4.1_A4.1_[A6C]_F4.1_[A9T]_T4.1 (ssRNA)", "RNA": "B1 RNA with A33C, C34U, C35U, A36U"}, "B16": {"name": "Ib_S2_P4E.1_K4.1_C4.1_H4.1_A4.1_[A6T]_F4.1_[A9T]_T4.1 (ssRNA)", "RNA": "B1 RNA with A33U, C34U, C35U, A36U"}, "B17": {"name": "Ic_S2_P4E.1_K4.1_C4.1_H4.1_A4.1_[T7G]_F4.1_[A9G]_T4.1 (ssRNA)", "RNA": "B1 RNA with C34G, C35U, A36G"}, "B18": {"name": "Ic_S2_P4E.1_K4.1_C4.1_H4.1_A4.1_[T7A]_F4.1_[A9G]_T4.1 (ssRNA)", "RNA": "B1 RNA with C34A, C35U, A36G"}, "B19": {"name": "Ib_S2_P4E.1_K4.1_C4.1_H4.1_A4.1_[T7A]_F4.1_[A9C]_T4.1 (ssRNA)", "RNA": "B1 RNA with C34A, C35U, A36C"}, "B20": {"name": "Ic_S2_P4E.1_K4.1_C4.1_H4.1_A4.1_[T7G]_F4.1_[A9T]_T4.1 (ssRNA)", "RNA": "B1 RNA with C34G, C35U, A36U"}, "B21": {"name": "Ia_S2_P4E.1_K4.1_C4.1_H4.1_[T1A]_A4.1_F4.1_T4.1 (ssRNA)", "RNA": "B1 RNA with U28A, C34U, C35U"}, "B22": {"name": "Ib_S2_P4E.1_K4.1_C4.1_H4.1_A4.1_[T7C]_F4.1_[A9T]_T4.1 (ssRNA)", "RNA": "B1 RNA with C35U, A36U"}, "B23": {"name": "Ic_S2_P4E.1_K4.1_C4.1_H4.1_A4.1_[T7A]_F4.1_[A9T]_T4.1 (ssRNA)", "RNA": "B1 RNA with C34A, C35U, A36U"}, "B24": {"name": "Ib_S2_P4E.1_K4.1_C4.1_H4.1_[T1G]_[G2T]_A4.1_F4.1_T4.1 (ssRNA)", "RNA": "B1 RNA with U28G, G29U, C34U, C35U"}, "B25": {"name": "Ib_S2_P4E.1_K4.1_C4.1_H4.1_[T1A]_[G2C]_A4.1_F4.1_T4.1 (ssRNA)", "RNA": "B1 RNA with U28A, G29C, C34U, C35U"}}, "molecular_target": "T1, PUF4 RNA-binding domain (Saccharomyces cerevisiae, UniProt P25339 537-888)", "T1 sequence": "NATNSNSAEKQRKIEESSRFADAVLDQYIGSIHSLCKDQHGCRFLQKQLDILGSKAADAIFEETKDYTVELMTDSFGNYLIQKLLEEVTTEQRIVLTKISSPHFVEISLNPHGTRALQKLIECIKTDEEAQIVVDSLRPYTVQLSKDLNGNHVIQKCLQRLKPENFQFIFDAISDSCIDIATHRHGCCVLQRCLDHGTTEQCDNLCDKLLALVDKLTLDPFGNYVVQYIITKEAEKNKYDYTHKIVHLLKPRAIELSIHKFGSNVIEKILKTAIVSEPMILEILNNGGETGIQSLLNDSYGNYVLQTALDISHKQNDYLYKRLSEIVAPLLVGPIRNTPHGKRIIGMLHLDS", "assay": "Mg; RNA-MaP; 20 mM Na-HEPES pH 7.4, 30 mM KOAc, 0.75 mM MgCl2, 0.1% Tween-20, 5% glycerol, 0.1 mg/mL BSA, 2 mM DTT; 25 C; 0.0125-409.6 nM protein", "conditions": "tags: N-His6-TEV cleaved; C-SNAP kept, Cy3B-labelled; label: tethered on chip by stalled RNA polymerase", "note": "Changes are numbered by the printed parent chain. Names may count otherwise.", "data": [{"binder": "B1", "values": [{"measurement": "Kd", "value": 12, "unit": "nM"}]}, {"binder": "B2", "values": [{"measurement": "Kd", "value": 18.8, "unit": "nM"}]}, {"binder": "B3", "values": [{"measurement": "Kd", "value": 18, "unit": "nM"}]}, {"binder": "B4", "values": [{"measurement": "Kd", "value": 16.9, "unit": "nM"}]}, {"binder": "B5", "values": [{"measurement": "Kd", "value": 9.22, "unit": "nM"}]}, {"binder": "B6", "values": [{"measurement": "Kd", "value": 2.72, "unit": "nM"}]}, {"binder": "B7", "values": [{"measurement": "Kd", "value": 17.1, "unit": "nM"}]}, {"binder": "B8", "values": [{"measurement": "Kd", "value": 11, "unit": "nM"}]}, {"binder": "B9", "values": [{"measurement": "Kd", "value": 26.5, "unit": "nM"}]}, {"binder": "B10", "values": [{"measurement": "Kd", "value": 1.55, "unit": "nM"}]}, {"binder": "B11", "values": [{"measurement": "Kd", "value": 9.54, "unit": "nM"}]}, {"binder": "B12", "values": [{"measurement": "Kd", "value": 14.5, "unit": "nM"}]}, {"binder": "B13", "values": [{"measurement": "Kd", "value": 20.5, "unit": "nM"}]}, {"binder": "B14", "values": [{"measurement": "Kd", "value": 18.3, "unit": "nM"}]}, {"binder": "B15", "values": [{"measurement": "Kd", "value": 8.41, "unit": "nM"}]}, {"binder": "B16", "values": [{"measurement": "Kd", "value": 9.83, "unit": "nM"}]}, {"binder": "B17", "values": [{"measurement": "Kd", "value": 6.7, "unit": "nM"}]}, {"binder": "B18", "values": [{"measurement": "Kd", "value": 5.97, "unit": "nM"}]}, {"binder": "B19", "values": [{"measurement": "Kd", "value": 12.3, "unit": "nM"}]}, {"binder": "B20", "values": [{"measurement": "Kd", "value": 11.6, "unit": "nM"}]}, {"binder": "B21", "values": [{"measurement": "Kd", "value": 103, "unit": "nM"}]}, {"binder": "B22", "values": [{"measurement": "Kd", "value": 2.73, "unit": "nM"}]}, {"binder": "B23", "values": [{"measurement": "Kd", "value": 4.33, "unit": "nM"}]}, {"binder": "B24", "values": [{"measurement": "Kd", "value": 7.76, "unit": "nM"}]}, {"binder": "B25", "values": [{"measurement": "Kd", "value": 174, "unit": "nM"}]}]}
